2 molecules from patent US20160208003A1 (AFFITECH RESEARCH, published 2016) can be followed below.

Test [1] has as its target T1, human CC chemokine receptor 4 (CCR4) (human, UniProt P51679 1-360).
T1 construct: whole, on cells; Always presented on cells; also called CD194; human CCR4
T1 sequence (looked up): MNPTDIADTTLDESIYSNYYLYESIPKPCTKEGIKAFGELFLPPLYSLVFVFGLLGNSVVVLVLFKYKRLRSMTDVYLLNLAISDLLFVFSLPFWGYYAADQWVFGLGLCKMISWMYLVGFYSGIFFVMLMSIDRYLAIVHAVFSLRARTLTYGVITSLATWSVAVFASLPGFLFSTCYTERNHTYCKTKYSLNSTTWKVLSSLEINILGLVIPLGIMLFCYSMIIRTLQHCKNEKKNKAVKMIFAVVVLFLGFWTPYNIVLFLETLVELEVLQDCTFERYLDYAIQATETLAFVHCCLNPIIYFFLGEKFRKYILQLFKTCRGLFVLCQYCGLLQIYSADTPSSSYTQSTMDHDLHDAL
The test is described as follows: flow cytometry, IgG titration on CCRF-CEM cells, anti-human-PE, MFI. For orientation: A flow cytometer gives signals particle by particle.

The target in test [2] is T2, monkey (Macaca mulatta) CCR4 (monkey (Macaca mulatta), UniProt F7GUA3 1-360).
T2 construct: also called monkey CCR4
T2 sequence: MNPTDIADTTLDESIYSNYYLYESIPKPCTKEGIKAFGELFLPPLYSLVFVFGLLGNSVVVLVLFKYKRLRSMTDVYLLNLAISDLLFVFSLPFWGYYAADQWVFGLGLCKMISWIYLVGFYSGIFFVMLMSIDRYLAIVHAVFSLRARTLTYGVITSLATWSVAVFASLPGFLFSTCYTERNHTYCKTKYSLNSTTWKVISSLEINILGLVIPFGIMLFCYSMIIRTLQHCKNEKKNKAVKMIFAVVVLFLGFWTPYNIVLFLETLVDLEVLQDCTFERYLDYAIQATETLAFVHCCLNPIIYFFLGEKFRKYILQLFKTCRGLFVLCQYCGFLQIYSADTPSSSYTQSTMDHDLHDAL
As to the kind of experiment: flow cytometry, 10 µg/ml antibody on HEK-293T/17 cells transiently transfected with monkey CCR4, anti-human-IgG-PE. The procedure:
(§1) For transient transfection, Hek293T/17 cells were seeded as 2×10^6 cells in a T75 (NUNC) flask. 48 h after seeding, the cells were transfected with Fugene (ROCHE). 40 μl Fugene and 16 μg DNA are used per T75. The cells were used for assays 48 h after transfection.
(§2) HEK-293T/17 cells, were transiently transfected either with pcDNA3.1 plasmid encoding human CCR4 or with pLNO plasmids (Norderhaug et al, 1997) encoding either mouse (GeneBank CAA62372) or monkey (Macaca mulatta) CCR4 (PubMed access number XP_001098807) using Fugene (Roche) as a transfection reagent. Non-transfected (CCR4 negative) cells served as a negative control. The cells were cultivated further for 48 hours under regular conditions described above. The cells were washed twice with PBS, detached from the culture flasks by incubating with Accutase (PAA laboratories, Linz, Austria) for 3 minutes at room temperature. The cells were then washed 2 times with PBS (400×g, 5 min, 4° C.) and resuspended in PBS containing 0.2% BSA and 0.09% NaN₃. 1×10⁵ cells per well were aliquoted into V-shaped 96-well plates (Griner Bio-One, Frikenhausen, Germany). Cells were centrifuged (400×g, 5 min, 4° C.) and resuspended in 50 μl of 10 μg/ml 9E or 9E10J, in PBS containing 0.2% BSA and 0.09% NaN3. The cells were incubated further at 4° C. for 60 min. The samples were then washed twice by centrifugation and re-suspension in 100 μl FACS buffer. […]

The target of test [3] is T1, human CC chemokine receptor 4 (CCR4). The test is described as follows: cell-based or functional assay.
The target is the same in test [4]. As to the kind of experiment: flow cytometry competition; antibody titrated, competitor biotinylated MDC; cell line not given. The procedure:
(§3) The cells were harvested from culture flasks, washed 2 times with PBS (400×g, 5 min, 4° C.) and resuspended in PBS containing 0.2% BSA and 0.09% NaN3. 1×10^5 cells per well were aliquoted into V-shaped 96-well plates (Greiner Bio-One, Frikenhausen, Germany). Cells were centrifuged (400×g, 5 min, 4° C.) and resuspended in 50 μl IgG, single chain or unlabeled ligand (1:10 dilution series starting on 100/500/26, 4 μg/ml) mixed with a fixed concentration of biotinylated ligand (10 or 20 nM, see legend to FIG. 24). The cells were incubated for 2 hours at 4° C. and mixed with a pipette every 45 min. The cells were washed three times with 150 μl PBS with 0.2% BSA and 0.09% NaN3 and stained with 3 μg/ml streptavidin PE (BD Biosciences) for 45 minutes at 4° C. Cells were washed, resuspended in 200 μl PBS with 0.2% BSA and 0.09% NaN3, and transferred to a U-shaped 96 well Costar (Corning, Schiphol-Rijik, The Netherlands) plate for flow cytometry using an FACS Canto II flow cytometer (BD Biosciences, Heidelberg, Germany). […] Apparent binding affinities (KD) were calculated according to the following equation derived from previously described methods (Kipriyanov et al, 1997b; Schodin & Kranz, 1993): […]

Test [5] shares this target. The test is described as follows: flow cytometry competition; antibody titrated, competitor biotinylated TARC; cell line not given. The procedure:
as §3

In a further test the target is T3, mouse CCR4 (mouse, UniProt P51680 1-360).
T3 construct: whole, on cells; also called murine CCR4
T3 sequence (looked up): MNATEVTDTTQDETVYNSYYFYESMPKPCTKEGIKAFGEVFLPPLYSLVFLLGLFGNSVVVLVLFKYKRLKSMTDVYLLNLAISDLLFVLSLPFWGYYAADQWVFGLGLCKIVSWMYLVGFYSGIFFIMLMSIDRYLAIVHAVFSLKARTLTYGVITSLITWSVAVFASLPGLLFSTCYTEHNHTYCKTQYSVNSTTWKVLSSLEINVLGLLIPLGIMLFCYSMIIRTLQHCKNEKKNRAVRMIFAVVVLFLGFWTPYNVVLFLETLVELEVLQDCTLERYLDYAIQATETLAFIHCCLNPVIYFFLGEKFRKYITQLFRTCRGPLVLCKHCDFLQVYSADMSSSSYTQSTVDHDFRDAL
As to the kind of experiment: flow cytometry on HEK-293T/17 cells transiently transfected with mouse CCR4, anti-human-IgG-PE detection. The procedure:
as §1, §2

B1: 9E10J IgG (full length human IgG1, lambda) (antibody, V domains shown)
VH: QVQLVQSGAEVKKPGSSVKVSCKASGGTFSSYAISWVRQAPGQGLEWMGGIIPIFGTANYAQKFQGRVTMTRDTSTSTVYMELSSLRSEDTAVYYCARRGGSYFDYWGQGTLVTVSS
VL: SYVLTQPPSASGTPGQSVTISCSGSTSNIGSHYVFWYQQLPGTAPRLLIYRNHQRPSGVPDRLSGSKSGTSASLAISGLRSEDEADYYCAVWDDTLSGWVFGGGTKLTVLG
notes: also called IgG 9E10J; unmodified 9E10J
Regarding B1, the EC50 (read off the curve) (commonly the concentration at which the effect is half-maximal) in test [1] was about 0.1 nM. Also, the figures for the binding result (in test [2]; with mouse CCR4) were “binds” and “no binding (tested: 10 µg/ml)”, respectively. The “ADCC of CCRF-CEM cells, EC50 (mean, N=5)” value in test [3] was 0.0247 µg/mL. Moreover, the IC50 (as a rule, the point on the concentration scale where inhibition reaches its midpoint) came out at 0.85 nM in test [4] and 2.5 nM in test [5].

B2: 9E IgG (full length human IgG1, lambda) (antibody, V domains shown)
VH: QVQLVQSGAEVKKPGSSVKVSCKASGGTFSNYAISWVRQAPGQGLEWMGGIIPIFGTANYAQKFQGRVTITADESTSTAYMELSSLRSEDTAVYYCARRGGSYFDYWGQGTLVTVSS
VL: SYVLTQPPSASGTPGQSVTISCSGSTSNIGSHYVFWYQQLPGTAPRLLIYRNHQRPSGVPDRLSGSKSGTSASLAISGLRSEDEADYYCAVWDDTLSGWVFGGGTKLTVLG
notes: also called IgG 9E; IgG1 9E
Consider B2, for which, in test [1], the “EC50 (read off the curve)” value is about 0.3 nM. Also, the values for the binding result (in test [2]; with mouse CCR4) were “binds” and “no binding (tested: 10 µg/ml)”, respectively. For the same molecule, the “ADCC of CCRF-CEM cells, EC50 (mean, N=2)” value in test [3] came to 0.186 µg/mL. For the same molecule, the half-inhibitory concentration (IC50) in test [4] was found to be 3.9 nM; in test [5], 12.5 nM.
